Assay results published in patent KR20130034043A, “폴리펩타이드” (애피바디 에이비, priority 2010, dated 2013).
Where no end group is shown, it is not given here.

Tests used:
인간 혈청 함유 IgG = format: binding
[1] = Small animal PET, whole-body distribution of 68Ga-labelled polypeptide (Example 11); format: in vivo, 랫트; details: after i.v. injection, […] scan
[2] = Stability to heat, CD analysis of structural reversibility (Example 10); format: physicochemical
RSA = target: T1, RSA (Rattus norvegicus, UniProt P02770); experiment: Biacore affinity for albumin of various species: rat (Example 7); format: binding, 랫트; details: range stated over all five species
T1 construct: purchased Sigma-Aldrich A6272
T1 sequence (P02770 25-608): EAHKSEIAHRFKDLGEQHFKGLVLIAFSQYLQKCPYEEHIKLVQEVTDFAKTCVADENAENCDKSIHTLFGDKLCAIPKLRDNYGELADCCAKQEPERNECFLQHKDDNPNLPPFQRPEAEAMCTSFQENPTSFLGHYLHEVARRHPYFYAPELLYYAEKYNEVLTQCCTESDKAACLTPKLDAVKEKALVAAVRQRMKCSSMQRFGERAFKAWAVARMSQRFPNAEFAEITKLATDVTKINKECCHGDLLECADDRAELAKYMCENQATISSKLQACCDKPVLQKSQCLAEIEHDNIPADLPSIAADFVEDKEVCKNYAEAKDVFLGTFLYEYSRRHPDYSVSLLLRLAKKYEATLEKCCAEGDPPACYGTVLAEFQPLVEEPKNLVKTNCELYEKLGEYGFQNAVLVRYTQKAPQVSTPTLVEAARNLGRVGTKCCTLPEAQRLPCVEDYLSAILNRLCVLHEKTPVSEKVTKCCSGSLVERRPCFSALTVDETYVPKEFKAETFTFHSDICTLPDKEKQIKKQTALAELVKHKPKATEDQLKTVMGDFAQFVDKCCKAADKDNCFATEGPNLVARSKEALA

CSA = target: T2, CSA (Macaca fascicularis, UniProt A2V9Z4); experiment: Biacore affinity for albumin of various species: cynomolgus (Example 7); format: binding, 필리핀 원숭이; details: range stated over all five species
T2 construct: CSA(cynomolgus 혈청으로부터 얻어 in-house 정제시킴); from tissue; host or cells: cynomolgus serum
T2 sequence (A2V9Z4 25-608): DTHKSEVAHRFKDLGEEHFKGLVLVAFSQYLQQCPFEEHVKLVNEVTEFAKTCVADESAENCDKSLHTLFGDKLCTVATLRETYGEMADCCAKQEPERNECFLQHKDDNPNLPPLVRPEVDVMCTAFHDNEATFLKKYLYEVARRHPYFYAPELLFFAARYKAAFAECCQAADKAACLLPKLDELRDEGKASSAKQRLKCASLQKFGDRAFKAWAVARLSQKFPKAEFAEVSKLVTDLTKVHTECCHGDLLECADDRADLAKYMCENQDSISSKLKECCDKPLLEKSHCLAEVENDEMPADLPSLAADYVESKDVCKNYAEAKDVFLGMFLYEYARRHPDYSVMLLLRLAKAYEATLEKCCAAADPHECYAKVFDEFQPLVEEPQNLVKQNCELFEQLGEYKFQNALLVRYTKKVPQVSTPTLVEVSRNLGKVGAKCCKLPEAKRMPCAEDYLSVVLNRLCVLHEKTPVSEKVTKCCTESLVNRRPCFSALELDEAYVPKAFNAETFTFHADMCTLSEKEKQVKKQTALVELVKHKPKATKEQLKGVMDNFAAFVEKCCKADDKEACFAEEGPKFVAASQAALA

MSA = target: T3, MSA (Mus musculus, UniProt P07724); experiment: Biacore affinity for albumin of various species: mouse (Example 7); format: binding, 마우스; details: range stated over all five species
T3 construct: purchased Sigma-Aldrich A3559
T3 sequence (P07724 25-608): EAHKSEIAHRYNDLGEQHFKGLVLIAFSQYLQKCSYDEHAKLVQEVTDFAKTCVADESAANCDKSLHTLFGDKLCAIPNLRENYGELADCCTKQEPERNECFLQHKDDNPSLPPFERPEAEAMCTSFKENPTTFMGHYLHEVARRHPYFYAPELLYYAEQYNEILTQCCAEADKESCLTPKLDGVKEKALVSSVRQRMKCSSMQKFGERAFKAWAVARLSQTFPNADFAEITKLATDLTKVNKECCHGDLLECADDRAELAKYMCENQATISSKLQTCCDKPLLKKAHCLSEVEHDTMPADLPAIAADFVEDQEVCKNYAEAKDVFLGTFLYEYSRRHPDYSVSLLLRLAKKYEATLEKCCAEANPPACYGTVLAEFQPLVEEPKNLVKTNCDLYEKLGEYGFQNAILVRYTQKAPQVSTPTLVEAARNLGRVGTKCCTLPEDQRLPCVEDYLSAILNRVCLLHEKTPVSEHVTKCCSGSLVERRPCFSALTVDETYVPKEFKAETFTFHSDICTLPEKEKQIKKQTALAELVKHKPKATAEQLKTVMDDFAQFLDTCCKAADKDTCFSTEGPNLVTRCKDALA

인간 혈청 알부민(HSA) [3] = target: T4, 인간 혈청 알부민(HSA) (Homo sapiens, UniProt P02768); experiment: Biacore affinity for albumin of various species: human (Example 7); format: binding
T4 construct: purchased Novozymes

DSA = target: T5, DSA (Canis lupus familiaris, UniProt P49822); experiment: Biacore affinity for albumin of various species: dog (Example 7); format: binding, 개; details: range stated over all five species
T5 construct: purchased MP Biomedicals 55925
T5 sequence (P49822 25-608): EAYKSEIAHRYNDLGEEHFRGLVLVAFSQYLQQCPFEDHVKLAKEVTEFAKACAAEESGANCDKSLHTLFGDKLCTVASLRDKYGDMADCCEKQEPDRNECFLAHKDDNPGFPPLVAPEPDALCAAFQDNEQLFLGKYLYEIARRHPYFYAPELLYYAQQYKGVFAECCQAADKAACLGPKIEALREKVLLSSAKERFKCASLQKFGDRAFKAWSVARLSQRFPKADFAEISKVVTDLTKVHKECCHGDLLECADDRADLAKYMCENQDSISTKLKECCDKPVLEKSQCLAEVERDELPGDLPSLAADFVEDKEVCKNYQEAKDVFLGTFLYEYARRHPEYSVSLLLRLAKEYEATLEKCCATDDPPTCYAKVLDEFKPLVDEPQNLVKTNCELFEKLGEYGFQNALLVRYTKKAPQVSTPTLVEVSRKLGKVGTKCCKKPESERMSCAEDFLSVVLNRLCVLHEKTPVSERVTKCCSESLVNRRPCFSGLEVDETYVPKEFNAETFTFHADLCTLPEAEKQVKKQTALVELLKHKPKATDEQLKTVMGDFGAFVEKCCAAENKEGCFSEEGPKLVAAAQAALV

HSA = target: T6, HSA (Homo sapiens, UniProt P02768); experiment: Stability to heat and low pH, biosensor analysis of HSA binding (Example 10); format: physicochemical, 인간; details: 90℃, 10 min, pH 4.0
T6 construct: purchased Novozymes

인간 혈청 알부민(HSA) [4] = target: T4, 인간 혈청 알부민(HSA); experiment: Biacore (SPR) affinity for immobilised HSA (Example 2); format: binding; details: as in Example 2; data not shown
[5] = Melting temperature (Tm) by circular dichroism, variable temperature (Example 3); format: physicochemical; details: higher Tm with N-terminal serine

For CC[C@H](C)[C@H](NC(=O)[C@H](C)NC(=O)[C@H](CC(=O)O)NC(=O)[C@H](CCCCN)NC(=O)[C@H](CC(C)C)NC(=O)[C@H](C)NC(=O)[C@H](CCC(=O)O)NC(=O)[C@@H](NC(=O)CNC(=O)[C@H](CCC(=O)O)NC(=O)[C@@H](NC(=O)[C@@H](NC(=O)[C@H](CCCCN)NC(=O)[C@H](C)NC(=O)[C@H](CCCCN)NC(=O)[C@H](CC(=O)O)NC(=O)[C@@H](NC(=O)[C@H](CC(C)C)NC(=O)[C@H](CCCNC(=N)N)NC(=O)[C@H](CCCCN)NC(=O)[C@H](Cc1ccc(O)cc1)NC(=O)[C@H](Cc1ccccc1)NC(=O)[C@H](CC(=O)O)NC(=O)[C@H](CO)NC(=O)[C@@H](NC(=O)CNC(=O)[C@H](Cc1ccc(O)cc1)NC(=O)[C@H](CSC1CC(=O)N(CCNC(=O)CN2CCN(CC(=O)O)CCN(CC(=O)O)CCN(CC(=O)O)CC2)C1=O)NC(=O)[C@H](CC(=O)O)NC(=O)[C@H](CC(C)C)NC(=O)[C@H](CCC(=O)O)NC(=O)[C@H](C)NC(=O)[C@H](CC(N)=O)NC(=O)[C@H](C)NC(=O)[C@H](C)NC(=O)[C@H](CCC(=O)O)NC(=O)[C@H](CCCCN)NC(=O)[C@H](C)NC(=O)[C@H](CO)NC(=O)[C@H](C)NC(=O)[C@H](CC(C)C)NC(=O)CN)C(C)C)[C@@H](C)CC)[C@@H](C)O)C(C)C)C(C)C)C(=O)N[C@@H](CC(C)C)C(=O)N[C@@H](C)C(=O)N[C@@H](C)C(=O)N[C@@H](CC(C)C)C(=O)N1CCC[C@H]1C(=O)O (some centres unmarked) [PEP07968], the “Reactivity with human serum IgG (mean OD and proportion of sera binding)” value (인간 혈청 함유 IgG) was “가장 낮은 반응도”, the Immunogenicity classification (CD3+ CD4+ T 세포) was “비-면역원성” and the “Number of responding individuals compared with buffer only” value (CD3+ CD4+ T 세포) was 1 명.
With “68Ga-PEP08296: 68Ga-labelled PEP08296 (DOTA-conjugated PEP08185, SEQ ID NO:148) (GSLAEAKEAANAELDCYGVSDFYKRLIDKAKTVEGVEALKDAILAALPG; also: DOTA chelator conjugated, place not given here, 68Ga label)” the Plasma clearance [1] was “매우 느린”.
With “PEP08296: DOTA-conjugated PEP08185 (SEQ ID NO:148) (GSLAEAKEAANAELDCYGVSDFYKRLIDKAKTVEGVEALKDAILAALPG; also: DOTA conjugate, place not given here)” the “Alpha helix content after heat treatment, pH 4.0” value ([2]; 90℃, 12 min, PBS pH 4.0) was “약간 감소”, the “Alpha helix content after heat treatment, pH 7.2” value ([2]; 90℃, 12 min, PBS pH 7.2) was “어떠한 변화도 없었다” and the “Effect of short heating to 90℃ on structure (CD spectra before/after)” value ([2]; temperature gradient 20-90℃, pH 4 or pH 7.2 buffer) was “전혀 영향을 미치지 않았다”. The “KD for RSA” value (RSA) was “높은 친화성(KD가 피코몰 미만으로부터 나노몰 미만까지의 범위에 속함)”, the “KD for CSA” value (CSA) was “높은 친화성(KD가 피코몰 미만으로부터 나노몰 미만까지의 범위에 속함)” and the “KD for MSA” value (MSA) was “높은 친화성(KD가 피코몰 미만으로부터 나노몰 미만까지의 범위에 속함)”. The “Rank order of relative affinity for albumins of the species” value (인간 혈청 알부민(HSA) [3]; HSA, CSA, RSA, MSA, DSA) was “RSA ≥ HSA/CSA > MSA/DSA”, the “Affinity (KD) compared with PEP06923” value (인간 혈청 알부민(HSA) [3]; albumins of the tested species, same order of magnitude) was “같거나 약간 낮다” and the “KD for HSA” value (인간 혈청 알부민(HSA) [3]; range stated over all five species) was “높은 친화성(KD가 피코몰 미만으로부터 나노몰 미만까지의 범위에 속함)”. The “KD for DSA” value (DSA) was “높은 친화성(KD가 피코몰 미만으로부터 나노몰 미만까지의 범위에 속함)” and the “HSA binding capacity after heat treatment” value (HSA) was “약간 떨어뜨렸다”.
With “PEP07975: maleimide-DOTA-conjugated PEP07834 (SEQ ID NO:160), C-terminal amide, chemically synthesised (ALASAKEAANAELDCYGVSDFYKRLIDKAKTVEGVEALKDAILAALP-NH2; also: maleimide-DOTA conjugate, place not given here)” the “Binding activity to HSA” value (인간 혈청 알부민(HSA) [4]) was “확인하였으며”.
For “PEP07554: albumin binding polypeptide variant, SEQ ID NO:156 (GSS + PP007 sequence) (GSSLASAKEAANAELDSYGVSDFYKRLIDKAKTVEGVEALKDAILAALP; Engineered albumin-binding polypeptide)”, the “Tm difference, N-terminal serine vs glycine at the same position (PEP07554 vs PEP07912)” value [5] was 5 °C.
